Test [1] has as its target biotinylated murine PD-L1 (murine) (UniProt Q9EP73). Put plainly: blocking ELISA; murine PD-L1 binding to murine PD-1 (the blocked partner) in the presence of the IgG.
For test [2], the target named is T1, biotinylated human PD-L1 (human, UniProt Q9NZQ7 19-239, limits assumed, biotinylated).
T1 construct: construct not described
Kind of test: avidity ELISA; biotinylated human PD-L1 (0.2 ug/mL) captured on a neutravidin plate, IgG titrated, anti-human Fc-HRP/TMB. The method, then: Neutravidin was coated onto maxisorp plates at 2 μg/mL in coating buffer and incubated overnight at 4° C. The next day, plates were washed with wash buffer (PBS+0.05% Tween-20), and blocker with casein for 1 hour, at room temperature. Plates were then washed again using wash buffer. […] Plates were then washed again using wash buffer. The different antibodies were then added at various concentrations, and incubated for 1 hour at room temperature. Plates were then washed again using wash buffer. Anti-human Fc-HRP was then added and incubated for 1 hour at room temperature. Plates were then washed again using wash buffer. Finally, TMB was added to develop the ELISA; TMB conversion by HRP was stopped using 1M H—Cl.
For orientation: In an ELISA, binding on a coated surface is turned into a signal by an enzyme label.

Test [3] has as its target T1, biotinylated human PD-L1. Kind of test: ELISA; antibody coated on the plate at 2 ug/mL, biotinylated human PD-L1 titrated (x axis: Human PD-L1, nM), streptavidin-HRP/TMB. The method, then:
Binding was measured by ELISA. Antibodies were coated onto maxisorp plates at 2 μg/mL in coating buffer and incubated overnight at 4° C. The next day, plates were washed with wash buffer (PBS+0.05% Tween-20), and blocker with casein for 1 hour, at room temperature. Plates were then washed again using wash buffer. […] Plates were then washed again using wash buffer. […] Plates were then washed again using wash buffer. Finally, TMB was added to develop the ELISA; TMB conversion by HRP was stopped using 1M H—Cl.

Test [4] deals with T2, human PD-L1 expressed on cells (human, UniProt Q9NZQ7 19-290).
T2 construct: whole, on cells; also called PD-L1 transfected HEK 293 cells; HEK293-6E cells transfected with human PD-L1
Kind of test: flow cytometry blocking assay; antibody mixed with human PD-1-PE (the blocked partner) and added to HEK293 cells transfected with human PD-L1. An excerpt: Cells were washed 3 times with PBS and all data were collected on a BD FACSCanto II (BD Bioscience) and analysed on BD FACSDiva software (BD Bioscience).
A general note: In flow cytometry, cells or beads pass a laser one at a time.

Test [5] addresses T1, biotinylated human PD-L1. Put plainly: blocking ELISA; biotinylated human PD-L1 pre-incubated with the Fab, then added to plate-coated human PD-1-Fc (the blocked partner); streptavidin-HRP/TMB.

T2 sequence (Q9NZQ7 19-290): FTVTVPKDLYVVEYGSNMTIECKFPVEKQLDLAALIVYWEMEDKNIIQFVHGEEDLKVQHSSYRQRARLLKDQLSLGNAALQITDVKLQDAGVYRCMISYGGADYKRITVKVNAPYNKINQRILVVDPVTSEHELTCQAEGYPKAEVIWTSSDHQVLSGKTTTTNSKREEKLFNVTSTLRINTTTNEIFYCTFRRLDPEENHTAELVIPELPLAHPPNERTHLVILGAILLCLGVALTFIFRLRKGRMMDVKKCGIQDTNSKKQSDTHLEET
T1 sequence (Q9NZQ7 19-239 limits assumed): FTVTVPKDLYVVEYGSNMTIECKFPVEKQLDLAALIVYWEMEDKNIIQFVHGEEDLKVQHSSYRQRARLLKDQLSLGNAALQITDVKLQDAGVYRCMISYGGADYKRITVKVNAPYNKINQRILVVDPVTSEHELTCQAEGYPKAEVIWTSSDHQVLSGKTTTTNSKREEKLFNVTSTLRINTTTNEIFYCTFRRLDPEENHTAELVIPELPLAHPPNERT
Chain of biotinylated murine PD-L1 (murine) (Q9EP73 19-238 limits assumed): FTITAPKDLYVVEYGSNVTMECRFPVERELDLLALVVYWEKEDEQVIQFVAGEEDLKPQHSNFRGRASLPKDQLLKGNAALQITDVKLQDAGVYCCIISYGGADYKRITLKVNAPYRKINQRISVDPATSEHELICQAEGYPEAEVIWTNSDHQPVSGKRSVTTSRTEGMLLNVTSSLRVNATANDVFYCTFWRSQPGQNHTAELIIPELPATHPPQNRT

In the case of “commercially available anti-murine PD-L1 IgG antibody 10F.9G2 (BioLegend)”, in test [1], the IC50 (read off the curve) is 10 nM.

B1: anti-PD-L1 antibody C4 (format not stated in the example) (antibody, V domains shown)
VH: QVQLQQSGAEVKKPGSSVKVSCKASGGTFSSYAISWVRQAPGQGLEWMGRIIPILGIANYAQKFQGRVTITADKSTSTAYMELSSLRSEDTAVYYCARGGYGGNSLYAFDIWGQGTMVTVSS
VL: QSVVTQPPSVSAAPGQKVTISCSGSSSNIGNNYVSWYQQLPGTAPKLLIYDNNERLSGIPDRFSGSKSGTSATLGISGLQTGDEADYYCGTWDSSLSVVVFGGGTKLTVL
notes: detected with anti-human Fc-HRP in the avidity ELISA, so it carried an Fc there
In the case of B1, the “EC50 (read off the curve)” value with biotinylated human PD-L1 [2] and with biotinylated human PD-L1 [3] was ~0.9 nM in each case.

B2: anti-PD-L1 antibody H12, IgG1 format (antibody, V domains shown)
VH: EVQLVQSGAEVKKPGASVKVSCKASGGTFSSYAISWVRQAPGQGLEWMGRIIPILGIANYAQKFQGRVTITADKSTSTAYMELSSLRSEDTAVYYCARSGHGYSYGAFDYWGQGTL
VL: QSVLTQPPSVSGAPGQRVTISCTGSSSNIGAGYDVHWYQQLPGTAPKLLIYGNSNRPSGVPDRFSGSKSGTSASLAITGLQAEDEADYYCQSYDSSLSGSYVVFGGGTKLTVL
notes: IgG1
On to B2, for which the “IC50 (read off the curve)” value in test [4] is ~9 nM.

B3: anti-PD-L1 antibody H12, IgG4 format (antibody, V domains shown)
VH: EVQLVQSGAEVKKPGASVKVSCKASGGTFSSYAISWVRQAPGQGLEWMGRIIPILGIANYAQKFQGRVTITADKSTSTAYMELSSLRSEDTAVYYCARSGHGYSYGAFDYWGQGTL
VL: QSVLTQPPSVSGAPGQRVTISCTGSSSNIGAGYDVHWYQQLPGTAPKLLIYGNSNRPSGVPDRFSGSKSGTSASLAITGLQAEDEADYYCQSYDSSLSGSYVVFGGGTKLTVL
notes: IgG4
For B3, the “IC50 (read off the curve)” value in test [4] is ~9 nM.

B4: anti-PD-L1 antibody clone A1, Fab format (Fab, V domains shown)
VH: QVQLQQSGAEVKKPGSSVKVSCKASGGTFSSYAISWVRQAPGQGLEWMGRIIPILGIANYAQKFQGRVTITADKSTSTAYMELSSLRSEDTAVYYCARGGSYGSLYAFDIWGQGTMVTVSS
VL: QSVLTQPPSVSAAPGQRVSISCSGRSSNIASHDVFWYQQLPGTAPKIVMYETNKRPWGIPDRFSGSKSGTSATLDIAGLQTGDEADYYCGAWDSGLTGMLFGGGTKVTVL
notes: Human Fab from a phage display library
Consider B4, for which, in the test with biotinylated human PD-L1 [5], the “IC50 (read off the curve)” value is ~50 nM.

B5: anti-PD-L1 antibody H12_GL, IgG1 format (antibody, V domains shown)
VH: QVQLVQSGAEVKKPGSSVKVSCKASGGTFSSYAISWVRQAPGQGLEWMGRIIPILGIANYAQKFQGRVTITADKSTSTAYMELSSLRSEDTAVYYCARSGHGYSYGAFDYWGQGTLVTVSS
VL: QSVLTQPPSVSGAPGQRVTISCTGSSSNIGAGYDVHWYQQLPGTAPKLLIYGNSNRPSGVPDRFSGSKSGTSASLAITGLQAEDEADYYCQSYDSSLSGSYVVFGGGTKLTVL
notes: IgG1
With B5, in test [4], the “IC50 (read off the curve)” value was ~7 nM.

B6: anti-PD-L1 antibody H12_GL, IgG4 format (antibody, V domains shown)
VH: QVQLVQSGAEVKKPGSSVKVSCKASGGTFSSYAISWVRQAPGQGLEWMGRIIPILGIANYAQKFQGRVTITADKSTSTAYMELSSLRSEDTAVYYCARSGHGYSYGAFDYWGQGTLVTVSS
VL: QSVLTQPPSVSGAPGQRVTISCTGSSSNIGAGYDVHWYQQLPGTAPKLLIYGNSNRPSGVPDRFSGSKSGTSASLAITGLQAEDEADYYCQSYDSSLSGSYVVFGGGTKLTVL
notes: IgG4
Take B6: in test [4], the “IC50 (read off the curve)” value is ~7 nM.

B7: anti-PD-L1 antibody clone C2, Fab format (Fab, V domains shown)
VH: QVQLQQSGAEVKKPGSSVKVSCKASGGTFSSYAISWVRQAPGQGLEWMGRIIPILGIANYAQKFQGRVTITADKSTSTAYMELSSLRSEDTAVYYCARGGSYGSLYAFDIWGQGTTVTVSS
VL: SYELTQPPSVSVAPGKTTRITCGGDNIGRKSVHWYQQRPGQAPLLLVYDDGDRPSGIPDRFSGSNSGNTATLTISGTQAMDEADYYCQAWDSTVVFGGGTRLTVL
notes: as for B4
In the case of B7, in the test with biotinylated human PD-L1 [5], the “IC50 (read off the curve)” value was ~40 nM.

These data come from US20170319690A1 (AGENCY FOR SCIENCE TECHNOLOGY AND RESEARCH, published 2017).
